Laboratory results as given in publication PMC10767048 (Nature Communications, 2024).

Target: GPC trimer Enc nanoparticle (Lassa GPC trimer-SpyTag coupled to encapsulin-SpyCatcher) (Lassa virus, Mouse/Sierra …, stabilised)
Assay: BLI
Conditions: both partners purified

B1: Fab of human LASV neutralizing antibody 37.7H (Fab, V domains shown)
VH: EVQLVQSGGGLVKAGGSLRLSCAASGFTFSTYSMNWIRQAPGKGLEWVASISSRSGSHINYVDSVKGRFTISRDNARDLLYLQMNSLRVDDSALYYCARDRRSGTSPLPLDVWGQGTTVTVFS
VL: QSALTQPASVSGSPGQSITISCTGTGSDIGGYNFVSWYQQYPGKAPKLIIYEVRIRASGVSNRFSGSKSGNTASLTISGLQAEDEADYYCNSYSIHSPWVFGGGTKLTVL
B1 was tested. Which Kd did it give?
The Kd was < 1 pM.

What about the koff of the same binder?
Its koff is < 1e-07 s⁻¹.

And the kon?
Its kon is 81100 M⁻¹ s⁻¹.
